B1: epitope 3 derived peptide (peptide)
peptide: QYQKDAPDHQELNLDVSLQLPSR
B2: anti-C3d mouse/human chimeric antibody C8D3 (antibody, V domains shown)
VH: QAYLQQSGAELVRPGASVKMSCKASGYTFTSYYMHWVKQTPRQGLEWIGAIYPGNGDTSYNQKFKGKATLTVDKSSSTAYMQLSSLTSEDSAVYFCAKGFDYWGQGTTVTVSS
VL: DVVMTQTPLSLPVSLGDQASISCRSSQSLVYSNGNTYLHWYLQKPGQSPKLLIYKVSNRFSGVPDRFSGSGSGTDFTLKISRVEAEDLGVYFCSQSTHVPYTFGGGTKLEIKR
notes: also called chimeric C8D3; chimeric C8D3 mAb
B3: murine anti-C3d hybridoma clone C6 (antibody, V domains shown)
VH: QAYLQQSGAELVRPGASVKMSCKASGYTFTSYYMHWVKQTPRQGLEWIGAIYPGNGDTSYNQKFKGKATLTVDKSSSTAYMQLSSLTSEDSAVYFCAKYGSGYWGQGTTVTVSS
VL: B2 VL
notes: Murine IgG1, kappa
B4: anti-C3d Fab of chimeric antibody C8D3 (Fab, V domains shown)
VH: B2 VH
VL: B2 VL

Legend:
[1] = molecular target: B2; experiment: competition: C8D3 binding to C3d antigen (MFI) with increasing amounts of peptide
[2] = molecular target: T1, human complement protein C3d (human, UniProt P01024 1002-1303); experiment: avidity; antibody titration on C3d-opsonised CLL patient cells, 'OFA 24 h' sample (FIG. 9); apparent KD (avidity) on C3d-opsonized CLL cells, OFA 24 h sample
T1 construct: domain: C3d; The assay field of each row says which; also called C3d antigen; C3d protein

[3] = molecular target: T1, human complement protein C3d; experiment: flow cytometry (MFI) on CLL cells taken 24 h after ofatumumab infusion (C3d-opsonised)
[4] = molecular target: T1, human complement protein C3d; experiment: PEPperCHIP microarray of 15-aa C3d peptides
Description: The epitopes on C3d were mapped using PEPperCHIP technology (PEPperPRINT GmbH, Heidelberg, Germany). In brief, 15 amino acid (aa) long peptides with 14 aa overlaps were synthesized based on the C3d aa sequence and immobilized in duplicate on microarray chips. […] The microarrays were read using the LI-COR Odyssey Imaging System and then analyzed using PepSlide® Analyzer software.

[5] = molecular target: T1, human complement protein C3d; experiment: surface plasmon resonance (Biacore 3000), C3d immobilised, Fab at 0.5, 2.5, 5, 25 and 50 nM

Binder: B1
binding result [1]: binds

Binder: B2
Kd [2]: 6.7 nM
EC50 (read off the curve) [3]: ~40 nM

Binder: B3
binding result [4]: binds

Binder: B4
Kd [5]: 17 nM
